{
  "source": "paper PMC7803741",
  "about": "“Structural basis of GABARAP-mediated GABAA receptor trafficking and functions on GABAergic synaptic transmission” (Nature Communications, 2021)",
  "conditions_in_all_cases": "both partners purified",
  "key": {"[1]": {"biological_target": "T1, clathrin adaptor protein AP2 (AP2 μ1 subunit) (rat, UniProt P84092 158-435)", "T1 construct": "AP2 μ1 subunit as printed, rat, UniProt P84092; the limits rest on the primer list; also called AP2 WT; source: E. coli BL21 (DE3), purified (nickel-NTA, size exclusion)", "T1 sequence (looked up)": "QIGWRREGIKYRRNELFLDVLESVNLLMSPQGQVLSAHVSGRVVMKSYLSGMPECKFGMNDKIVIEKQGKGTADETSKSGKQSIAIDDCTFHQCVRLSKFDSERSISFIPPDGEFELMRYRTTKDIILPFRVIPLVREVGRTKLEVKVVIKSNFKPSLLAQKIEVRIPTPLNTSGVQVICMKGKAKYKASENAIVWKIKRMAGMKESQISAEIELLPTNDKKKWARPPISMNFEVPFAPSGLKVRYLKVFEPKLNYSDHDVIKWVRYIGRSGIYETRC", "assay": "ITC; VP-ITC at 25 °C; 50 mM Tris pH 7.8, 100 mM NaCl, 1 mM EDTA, 1 mM DTT; γ2 subunit protein or peptide (100-200 μM) injected into GABARAP, GABARAPL1 or AP2 (10-20 μM) in the cell; one-site binding model"}, "[2]": {"biological_target": "T2, clathrin adaptor protein AP2 (AP2 μ1 subunit as printed) (rat, UniProt P84092 1-435)", "T2 construct": "AP2 μ subunit (printed 'AP2 μ1 subunit'), rat, UniProt P84092; the full-length gene was amplified and shorter fragments were generated; Only the μ subunit is named as cloned; the text calls the protein 'AP2'; source: E. coli BL21 (DE3), purified (nickel-NTA, size exclusion)", "T2 sequence (looked up)": "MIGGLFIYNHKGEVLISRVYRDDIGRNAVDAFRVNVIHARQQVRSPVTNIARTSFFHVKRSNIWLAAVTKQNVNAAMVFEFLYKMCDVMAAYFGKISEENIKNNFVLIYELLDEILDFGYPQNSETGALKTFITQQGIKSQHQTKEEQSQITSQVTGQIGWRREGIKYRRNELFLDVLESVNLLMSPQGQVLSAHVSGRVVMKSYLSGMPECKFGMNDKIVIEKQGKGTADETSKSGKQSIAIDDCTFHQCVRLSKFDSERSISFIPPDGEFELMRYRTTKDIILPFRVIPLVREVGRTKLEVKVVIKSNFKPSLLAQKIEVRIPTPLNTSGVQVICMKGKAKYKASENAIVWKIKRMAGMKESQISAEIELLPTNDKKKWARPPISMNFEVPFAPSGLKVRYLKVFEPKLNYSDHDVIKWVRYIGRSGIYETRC", "assay": "ITC; VP-ITC, 25 °C; 50 mM Tris pH 7.8, 100 mM NaCl, 1 mM EDTA, 1 mM DTT; γ2 subunit protein or peptide (100–200 μM) injected into GABARAP, GABARAPL1 or AP2 (10–20 μM) in the cell; one-site binding model"}, "[3]": {"biological_target": "T3, GABAAR-associated protein (GABARAP) (mouse, UniProt Q9DCD6 1-117)", "T3 construct": "GABARAP, mouse, UniProt Q9DCD6; the thioredoxin-His6 tag was removed 'when needed'; also called GABARAP WT; source: E. coli BL21 (DE3), purified (nickel-NTA, size exclusion)", "assay": "ITC; VP-ITC, 25 °C; 50 mM Tris pH 7.8, 100 mM NaCl, 1 mM EDTA, 1 mM DTT; γ2 subunit protein or peptide (100–200 μM) injected into GABARAP, GABARAPL1 or AP2 (10–20 μM) in the cell; one-site binding model"}, "GABARAPL1 [4]": {"biological_target": "T4, GABARAPL1 (mouse, UniProt Q8R3R8 1-117)", "T4 construct": "GABARAPL1, mouse, UniProt Q8R3R8; source: E. coli BL21 (DE3), purified (nickel-NTA, size exclusion)", "assay": "ITC; VP-ITC, 25 °C; 50 mM Tris pH 7.8, 100 mM NaCl, 1 mM EDTA, 1 mM DTT; γ2 subunit protein or peptide (100–200 μM) injected into GABARAP, GABARAPL1 or AP2 (10–20 μM) in the cell; one-site binding model"}, "GABARAP K66E": {"biological_target": "T5, GABARAP K66E (mouse, UniProt Q9DCD6 1-117, K66E)", "T5 construct": "GABARAP, mouse, UniProt Q9DCD6, K66E; source: E. coli BL21 (DE3), purified (nickel-NTA, size exclusion)", "T5 sequence (Q9DCD6 whole entry K66E)": "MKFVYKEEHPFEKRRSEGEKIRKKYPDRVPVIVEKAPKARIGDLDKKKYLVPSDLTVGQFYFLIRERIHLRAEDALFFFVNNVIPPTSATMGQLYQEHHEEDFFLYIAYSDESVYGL", "assay": "ITC; VP-ITC, 25 °C; 50 mM Tris pH 7.8, 100 mM NaCl, 1 mM EDTA, 1 mM DTT; γ2 subunit protein or peptide (100–200 μM) injected into GABARAP, GABARAPL1 or AP2 (10–20 μM) in the cell; one-site binding model"}, "GABARAP E17A": {"biological_target": "T6, GABARAP E17A (mouse, UniProt Q9DCD6 1-117, E17A)", "T6 construct": "GABARAP, mouse, UniProt Q9DCD6, E17A; source: E. coli BL21 (DE3), purified (nickel-NTA, size exclusion)", "T6 sequence (Q9DCD6 whole entry E17A)": "as the sequence (Q9DCD6 whole entry K66E) above, with E17A, E66K counted along it", "assay": "ITC; VP-ITC, 25 °C; 50 mM Tris pH 7.8, 100 mM NaCl, 1 mM EDTA, 1 mM DTT; γ2 subunit protein or peptide (100–200 μM) injected into GABARAP, GABARAPL1 or AP2 (10–20 μM) in the cell; one-site binding model"}, "GABARAPL1 [5]": {"biological_target": "T7, GABARAPL1 (mouse, UniProt Q8R3R8 1-117)", "T7 construct": "GABARAPL1, mouse, UniProt Q8R3R8; also called GABARAPL1 WT; source: E. coli BL21 (DE3), purified (nickel-NTA, size exclusion)", "assay": "ITC; VP-ITC at 25 °C; 50 mM Tris pH 7.8, 100 mM NaCl, 1 mM EDTA, 1 mM DTT; γ2 subunit protein or peptide (100-200 μM) injected into GABARAP, GABARAPL1 or AP2 (10-20 μM) in the cell; one-site binding model"}, "[6]": {"biological_target": "T8, GABAA receptor-associated protein (GABARAP) (mouse, UniProt Q9DCD6 1-117)", "T8 construct": "GABARAP, mouse, UniProt Q9DCD6; also called GABARAP WT; source: E. coli BL21 (DE3), purified (nickel-NTA, size exclusion)", "T8 sequence (Q9DCD6 whole entry)": "as the sequence (Q9DCD6 whole entry K66E) above, with E66K counted along it", "assay": "ITC; VP-ITC at 25 °C; 50 mM Tris pH 7.8, 100 mM NaCl, 1 mM EDTA, 1 mM DTT; γ2 subunit protein or peptide (100-200 μM) injected into GABARAP, GABARAPL1 or AP2 (10-20 μM) in the cell; one-site binding model"}, "[7]": {"biological_target": "T8, GABAA receptor-associated protein …", "assay": "ITC; VP-ITC at 25 °C; 50 mM Tris pH 7.8, 100 mM NaCl, 1 mM EDTA, 1 mM DTT; γ2 subunit protein or peptide (100-200 μM) injected into GABARAP, GABARAPL1 or AP2 (10-20 μM) in the cell; one-site binding model", "remark": "listed apart in the source"}, "[8]": {"biological_target": "T3, GABAAR-associated protein (GABARAP)", "assay": "ITC; giant ankyrin peptides and GABARAP, compared against γ2-GIM"}},
  "data": [
    {"binder": "ERDEEYGYECQDGKDCAS (peptide, UniProt P22723-2 398-415, looked up, source: E. coli BL21 (DE3), purified (nickel-NTA, size exclusion))", "note": "[GABAA receptor γ2-GIM L408Q]", "values": [
      {"measurement": "Kd", "setting": "[1]", "value": "> 50", "unit": "µM"}
    ]},
    {"binder": "ERDEEEGYECLDGKDCAS (peptide, UniProt P22723-2 398-415, looked up, source: E. coli BL21 (DE3), purified (nickel-NTA, size exclusion))", "note": "[γ2-GIM Y403E variant (phosphomimic mutation)]", "values": [
      {"measurement": "fold decrease of affinity against γ2-GIM WT", "setting": "[2]", "value": "~10", "unit": "fold"},
      {"measurement": "fold increase of affinity against γ2-GIM WT", "setting": "[3]", "value": "~5", "unit": "fold"}
    ]},
    {"binder": "ERDETYGYECLDGKDCAS (peptide, UniProt P22723-2 398-415, looked up, source: E. coli BL21 (DE3), purified (nickel-NTA, size exclusion))", "note": "[γ2-GIM E402T variant]", "values": [
      {"measurement": "Kd", "setting": "[3]", "value": 8.4, "unit": "µM"}
    ]},
    {"binder": "ERDETYGYECLDGKDCAS (peptide, UniProt P22723-2 398-415, looked up, source: E. coli BL21 (DE3), purified (nickel-NTA, size exclusion))", "note": "[GABAA receptor γ2-GIM E402T]", "values": [
      {"measurement": "Kd", "setting": "[1]", "value": "0.56 ± 0.02", "unit": "µM"}
    ]},
    {"binder": "ERDEEYGYECLDGKDCAS (peptide, UniProt P22723-2 398-415, looked up, also called γ2-GIM; source: E. coli BL21 (DE3), purified (nickel-NTA, size exclusion))", "note": "[GABAAR γ2 subunit GIM (GABARAP interacting motif, 398–415)]", "values": [
      {"measurement": "Kd", "setting": "GABARAPL1 [4]", "value": "~6.6", "unit": "µM"},
      {"measurement": "fold weakening against GABARAP WT", "setting": "GABARAP K66E", "value": "~4", "unit": "fold"},
      {"measurement": "binding result", "setting": "GABARAP E17A", "value": "binds"}
    ]},
    {"binder": "ERDEEYGYECLDGKDCAS (also called γ2-GIM; source: E. coli BL21 (DE3), purified (nickel-NTA, size exclusion))", "note": "[GABAA receptor γ2 subunit GIM (GABARAP interacting motif, 398-415)]", "values": [
      {"measurement": "Kd", "setting": "GABARAPL1 [5]", "value": 5.7, "unit": "µM"},
      {"measurement": "stoichiometry N", "setting": "GABARAPL1 [5]", "value": 1.23}
    ]},
    {"binder": "GYECLDGKDCASFFCCFEDCRTGAWRHGRIHIRIAKMDS (domain or fragment, mouse, GABAA receptor γ2 subunit, mouse, UniProt P22723-2, residues 404-442; also called GABAA receptor γ2 404-442; source: E. coli BL21 (DE3), purified (nickel-NTA, size exclusion))", "note": "[GABAA receptor γ2 subunit 404-442]", "values": [
      {"measurement": "Kd", "setting": "[6]", "value": 30, "unit": "µM"},
      {"measurement": "stoichiometry N", "setting": "[6]", "value": 0.55}
    ]},
    {"binder": "ERDEEYGYRCLDGKDCAS (peptide, UniProt P22723-2 398-415, looked up, source: E. coli BL21 (DE3), purified (nickel-NTA, size exclusion))", "note": "[GABAA receptor γ2-GIM E406R]", "values": [
      {"measurement": "Kd", "setting": "[1]", "value": "0.69 ± 0.06", "unit": "µM"}
    ]},
    {"binder": "ERDEEEGYECLDGKDCAS (peptide, UniProt P22723-2 398-415, looked up, source: E. coli BL21 (DE3), purified (nickel-NTA, size exclusion))", "note": "[GABAA receptor γ2-GIM Y403E]", "values": [
      {"measurement": "Kd", "setting": "[7]", "value": "1 ± 0.1", "unit": "µM"},
      {"measurement": "Kd", "setting": "[1]", "value": "2.46 ± 0.22", "unit": "µM"}
    ]},
    {"binder": "ERDEEYGYECLDGKDCASFFCCFEDCR (domain or fragment, mouse, source: E. coli BL21 (DE3), purified (nickel-NTA, size exclusion))", "note": "[GABAA receptor γ2 subunit 398-424]", "values": [
      {"measurement": "Kd", "setting": "[6]", "value": 5, "unit": "µM"},
      {"measurement": "stoichiometry N", "setting": "[6]", "value": 0.92}
    ]},
    {"binder": "PEDDWTRFSSEEIREARQAAASHAPS", "note": "[AnkG-ER peptide]", "values": [
      {"measurement": "fold stronger affinity for GABARAP than γ2-GIM", "setting": "[8]", "value": "~1000", "unit": "fold"}
    ]},
    {"binder": "GABAA receptor γ2 subunit 375-442 (full length TM3-TM4 ICD) (domain or fragment, mouse, UniProt P22723-2 375-442, looked up, GABAA receptor γ2 subunit, mouse, UniProt P22723-2, residues 375-442 (TM3-TM4 intracellular domain); also called GABAA receptor γ2 375-442; source: E. coli BL21 (DE3), purified (nickel-NTA, size exclusion)) PAPTIDIRPRSATIQMNNATHLQERDEEYGYECLDGKDCASFFCCFEDCRTGAWRHGRIHIRIAKMDS", "values": [
      {"measurement": "stoichiometry N", "setting": "[6]", "value": 0.53}
    ]},
    {"binder": "full length TM3–TM4 ICD (residues 375–442) of the GABAA receptor γ2 subunit (domain or fragment, mouse, UniProt P22723-2 375-442, looked up, GABAA receptor γ2 subunit, mouse, UniProt P22723-2, residues 375-442; also called TM3–TM4 intracellular loop; source: E. coli BL21 (DE3), purified (nickel-NTA, size exclusion)) PAPTIDIRPRSATIQMNNATHLQERDEEYGYECLDGKDCASFFCCFEDCRTGAWRHGRIHIRIAKMDS", "values": [
      {"measurement": "Kd", "setting": "[3]", "value": "~8", "unit": "µM"}
    ]},
    {"binder": "PAPTIDIRPRSATIQMNNATHLQERDEEYGYECLDGKDCASFFCCFEDCR (domain or fragment, mouse, UniProt P22723-2 375-424, looked up, source: E. coli BL21 (DE3), purified (nickel-NTA, size exclusion))", "note": "[GABAA receptor γ2 subunit 375-424]", "values": [
      {"measurement": "stoichiometry N", "setting": "[6]", "value": 0.92}
    ]}
  ]
}
